Test results reported in the domain aggregation screens of Martell et al. (2025).

Test: soluble fraction after stress (log2 fold change); higher = more stays soluble; pooled small domains, quantitative proteomics
Details: stress: pH 4
In short: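 With high-throughput quantitative proteomics, pooled custom libraries of small protein domains were measured after pH 4 stress. Each domain's soluble amount after the stress gives a fold change taken as aggregation propensity. Higher log2 values mean more of the domain stayed soluble.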

“HMNGDWISARQEYYIRGLWDLASRAKDEASLQAMLQRIAGVTQIEWISKEKATKVILALRDIAKK” and “HMNGELSQRQWQILRLIAQGLSNEQMARQLFVAPSTIKTHINHLYAKLGVRTRAEAQAIARQKLMA” are within 0.2 log units of each other in “soluble fraction (log2)” value: -0.154 for the first, -0.0448 for the second.

“HMNGIFEYSDAKKVPSLVEIENAYRRARVNGAEKFAVIINGEYFGYNPQKRGIYKLNDGEYQIL” and “HMNGKPDMTPIPAGSRNNDLHAWAYGRLLNHPDNAEAIRRDLFERGQTSGLKESELETIWQSIRRQLGGD” are within 0.2 log units of each other in “soluble fraction (log2)” value: 0.115 for the first, 0.126 for the second.

First: HMNGKTIEVPDITEKSIAEAQLILNQKKLRYNVVDSTRFDPAYLPFSVLTQEPEAGDEVKKNRTIYITLNP
Second: HMNGLDSVLRNWARQTLASGGENLLGDLTDHVTRLIISEALIMTGGNRTRAAELLGLSRPTLLAKMDKLNL
The “soluble fraction (log2)” value of the first is higher: -0.0716 for the first, -0.789 for the second.

First: HMNGPTPEEKLAVVNAEFVRQYGDEYEELELEGEELEEYYQKALNKEDFEYDIPHLPGWDEP
Second: HMNHHEIIMKNIDTLLKEKNISISKLEKSLGISNGYISRLRNGKYNFSLDLLLKLAKKFKISIDYLLTDFD
The “soluble fraction (log2)” value of the first is lower: -0.905 for the first, -0.119 for the second.

“HMNHNPSIARKISREIKRGAPPESLLNLARTVNDSYYRSLSFVSIAYSIKGKKSKELFEEAISNLT” and “HMNHTIEENDRVLILDPRGKKYLITVTNRVFHTNLGKLDISELIGKNYGDKIKSHMGKNFSILKPNLIDYI” are within 0.2 log units of each other in “soluble fraction (log2)” value: -0.0826 for the first, 0.053 for the second.

Compared with “HMNIAEIGQKVAQQRVALGISQERLAKLSDLSRSTIHHLEHGTLHEIGAAKLFKLLSLLDIQLK”, “HMNIDQAFISDLERMIMPDISKYELMDIISIMENSGFTIKVEGTGNEVRQVIKPGSKLKKGQKIKIKL” is lower in “soluble fraction (log2)” value: 0.159 for the first, -1.79 for the second.

Going from “HMNIEIIEVQEESTPSEISKIISTESTKIIEDLLNLGVMASLETPLKNQDIEKLLEGYGYIVDIKP” to “HMNIGEKIKKIRTQQNKSTYELADIINKNGFKISQSAISKIENGRKKIDIETLEEIAKALDIEVDLLIT”, the “soluble fraction (log2)” value rises from -1.84 to -0.282.

Going from “HMNIGIVSLAAVPMRKEPSDRAEMVNQILFGETFDVLEEQEKWTLVQLHHDAYQGWIDRKQWDYASGIAD” to “HMNIIHNPSKNFIESDLNDLKEGMEIEHKKFGYGLIKSIDKTQNHQKAVVNFKLVGEKTLLLSFARLRIV”, the “soluble fraction (log2)” value rises from -1.3 to -0.519.

First: HMNIILFLDELHRLLSDLPPEERNQAIKYYEDYFEDAGPENEQAILKELGSPQELANQIKATT
Second: HMNIIMLGEFIKEQRIKRKMTQEYLASELGISRPTYSQIELGTRELTIPEARKMAAIFNISLEDFLAEKE
The “soluble fraction (log2)” value of the first is lower: -1.36 for the first, 0.149 for the second.

Compared with “HMNIMNINQALNVLNLKGTVSKEELAKAYKKMAIKYHPDRNPTGVEMMKVINSAYEFLKGLNLEEIKH”, “HMNINLNVGKRLKSIRQNKELSLDEVSNLTNVSKPALAQIERGASSPTINTLWKISKGLKVPLSYFLQE” is higher in “soluble fraction (log2)” value: 0.252 for the first, ≥ 0.43 for the second.

First: HMNINVRNTGIKAVENNIINLSSDQRTFTWASNDRKLITVPFDENPYSALAAWFKTDEGIEVYQTIEKKL
Second: HMNIWNEWAFKKWIESDEYTGPDMTDFGHRTLVDEEFSKQYKEQMSLFKERVLTDDEFSAKYGDL
The “soluble fraction (log2)” value of the first is higher: -0.294 for the first, -2.07 for the second.

Compared with “HMNKEDIASNEKLLGLLNHMSKVLKDIDFIKDDRPMIVRKINHIFKKATLSEEEINILRGVLSAIENHS”, “HMNKEKLLEMFESMSIIIVQSLEEKEQTEDRIETELFNEAKTPRYSTLTKQDIQSVIRNILITVGV” is lower in “soluble fraction (log2)” value: -0.104 for the first, -0.959 for the second.

Going from “HMNKELVVPDLTDMRVKDAEFEAHQVGMRTEIVDSVYVRRLKRGYVYKQNPVPGSKVKKGRRIALTINAV” to “HMNKETYIDALERKLWDRLDPDQLRDIISYYKDYFAMEAAKGISEEETIRKLGDPALLAKSILAAE”, the “soluble fraction (log2)” value falls from 0.1 to -0.145.

Compared with “HMNKEVDLPNFVGMTKENAQAQADKIKIKLEFEEEYSSDVEEGKIISQNPEYKENYKIKEKSTVSLKI”, “HMNKFKVNERVRVIATGEIGIVKGREILPVEGSKRVNIEYLVKVGNGFSNWKAFSKKELEPVR” is higher in “soluble fraction (log2)” value: 0.0516 for the first, ≥ 0.43 for the second.

Compared with “HMNKFRVGDEVEIVKLDKTIQHFGGEEVLSPVGTKTYITYVDVTGKEIEIDKDIYSYHADDLTLV”, “HMNKKLEMKIEQLDLSVRLFNSLKRSGIYTVAQIIKLTEEDVMRFRSLGRKSFKELKEKLSEHGLEFE” is higher in “soluble fraction (log2)” value: -1.76 for the first, -1.02 for the second.

First: HMNKLKALREEQGLSMMEIAKQLNMPYTTYVNYEKGTREPNSEMLIKFSKFFNVTIDYLIGNSEQKN
Second: HMNKNLQLMINEIKKGLASEDIETRKKSVLMLSRIDAPEIIQVLEPLKDDSSEEIRKISSKIISVLSKKYT
The “soluble fraction (log2)” value of the first is lower: -0.129 for the first, 0.332 for the second.

First: HMNKNQGVTTTNLNFRKSASTSSLVLYTIPKNTTLDILDKLPSGWYKVKYKGLTGYVSGSYV
Second: HMNKPTFNIFNNRLTFPFKGDITIYSLDGKRVFSAYNESSVNLSFLNRGSYISEFNNSRSVLIL
The “soluble fraction (log2)” value of the first is higher: 0.22 for the first, -0.948 for the second.

First: HMNKRKQRINDLMDLIREQPALSIKNLAEMLNVSEMTIRRDMAYLKSNNLLNRAHGMNFLNS
Second: HMNKSEFLNELEKRIRVLEKNEIKDILAEYSQHIDMRMGSGLSEAEAIKDFGDMDDLAAEILEAY
The “soluble fraction (log2)” value of the first is higher: 0.132 for the first, -0.436 for the second.

Compared with “HMNKVDEEKNAELVSTIQNKFSDVSAATKKKVKAFMAEHDIPNFKNADEIPTANLEAIVAMLNED”, “HMNKYNNIEDLKEEDFENISEKYQVPVSFVKSKLDDLINWHEKNPQKNHYKNYLSALRDWVKRDSLKIKL” is lower in “soluble fraction (log2)” value: 0.22 for the first, 0.0178 for the second.

First: HMNLDELGNRIREQRIKQRLKQQDIANALMLSAQAVSKWERGENAPDISVLPDLVKILGVSVDWLLTGP
Second: HMNLDPHVVGHRLRDLRTRRDLTLADVAAETDISVSTLSRLESGSRRATLELLVPLARTYRVTLDELVDA
The “soluble fraction (log2)” value of the first is lower: -1.15 for the first, -0.353 for the second.

First: HMNLDPIKRKSEILSLFESHKNVKFNEIFFEKVNKEFTVLTFLIILELVKDNIIDFSQTQEGLIEFFTR
Second: HMNLDVPGIIKRAKQALNLKRDSELAEFLGVSRATVTNWAARNSIDFRLLLDKLGNTVDYNWLLLGKGNPK
The “soluble fraction (log2)” value of the first is higher: 0.204 for the first, -0.188 for the second.

“HMNLDYKQFQVFNNIETLNTFTNLLSDNKIDFEVENNSKIFDPSFANNDFEKEYIVKIHPNDFEKVY” and “HMNLEIGAIIKSLRAKHKYTQEQLSAFLGVTPQAVSRWEAGNGYPDIELLPAIARFFEVSTDELLGL” are the same in “soluble fraction (log2)” value: -1.32 for the first, -1.32 for the second.

Compared with “HMNLGDLYVIMEIAGQRDDVSARLMNREGQTFLVKTGTKLKSGDVVKEITPTYIKTDHDGEEAFLYF”, “HMNLGETIYNLRKEKKLSQGDLAEQLSVSRQSVSKWENNSAVPDLDKLVKLSTIFGVSLDELVKG” is higher in “soluble fraction (log2)” value: -1.17 for the first, 0.409 for the second.

Compared with “HMNLGLTGDPSVLYSILLQRGDSSRADLQRQTGWSLSKTTLVLNQLLAQKLIVQVGAGRSTQYRVIN”, “HMNLGNLAYESKVTKQVLNMIRPLHPEYSSDDITRAVKEILSEEGSRQRRVDEIARGALDVLMGNPR” is higher in “soluble fraction (log2)” value: -0.196 for the first, ≥ 0.43 for the second.

First: HMNLLQAHLLRLESAALLAEVREVDRQLSRWLHPLTPQSDVAIIDERNWEAAVARLTELGVHIEEGRW
Second: HMNLNIGNNIKNIRKSKNMTQTDFAELMGLSRSYIGDLENNRSNPSIKTLEAIARALDVPIVALIN
The “soluble fraction (log2)” value of the first is lower: -1.67 for the first, -0.726 for the second.

Going from “HMNLSSETLSEMEARIGQMGVVELQDRRAYLLQEQEGTQNPSRLKEIADELSAIQKALVALV” to “HMNLTEIGQRIRDRREELGLSQDRLAKLGGLPRVTINQLETGSIGDLGVSKLLNLLDLLGLTLDA”, the “soluble fraction (log2)” value falls from -0.401 to -0.614.

Going from “HMNLTLMDALKAAGLPVDGINLSMVNKMMEEQMPIDKTSLNQMYQLVQDNKDINVTTLVELKRLG” to “HMNLTSNDAYSRILNAIITSELRPGDTVTEIQLAQKFGFGRTPVREAIMRLENEGFIVSAERKKRVYIL”, the “soluble fraction (log2)” value falls from -0.393 to -0.815.

Compared with “HMNLTSSDIQKILSYALLADNSITLNSIEESMASLKLKKMSAEQLIELLEVSSMVLRNTNNSWSIL”, “HMNMENIADKIGKIYESLPEDLKLMIKYRDIDDLTYDEIAVKADLPVGTVRSRLHRAREQLLKELEKN” is higher in “soluble fraction (log2)” value: -1.32 for the first, -0.0554 for the second.

Compared with “HMNMEPNWLKWAKQLAALAQNGLTYSDNPYEIERYEHIRRIAAEMMAEGFELDTKTILELFPREKG”, “HMNMFDMRKTGARISQLRRAAGLTQAELAEKLGISYQAVSSWERGSNMPDIGKLLDLARILNTTVDALLSA” is higher in “soluble fraction (log2)” value: -1.41 for the first, 0.309 for the second.

“HMNMGKRFKELRKERKFTQQQLADRIGLAPSAISSYESGARYPSYDVLIKYSKIFHVTTDYLLG” and “HMNMKVGPVPANVVPANIKAHVSNNYSKYQIVQMMQNDKGYQVKLSNGTDLYYDKDGNILKTS” are within 0.2 log units of each other in “soluble fraction (log2)” value: 0.148 for the first, 0.0948 for the second.

“HMNMSVGAALRRRRNELGMTLRELADEAELTSGFLSQVENDRVSPSLKSLGRIAEVLRIPLFQLLS” and “HMNMSVVEKVIQQISNPGRDSLIPILQAVQEEEGFISRESVIEIGKALDLPASKIYGVATFYNQFR” are within 0.2 log units of each other in “soluble fraction (log2)” value: -0.659 for the first, -0.543 for the second.

Going from “HMNMTDVLVVNQTVRGGTQITESMLSVKKVDKSSLPDNYLKASLKDEVVGKYFDLGLTSGGVLTKDNISVS” to “HMNMVSGHLQIKKGYYYVVLSYYDNRNKRHVKYVSTGLPEKGNKRKAEAALARVRSEFEPPQE”, the “soluble fraction (log2)” value rises from 0.104 to 0.353.

Compared with “HMNNDFIVKSTDSHKVNLRSQPDTHADIIKRLDDHTIVEKLKTVRKNWYLVQLKDTTTQGYVHKSQLERV”, “HMNNDFVERLRKLFGHASMAEIARRIDVPHATIRNYFQGRLPAPEVLIKLARETGVSLNWLLTGEGKMFA” is lower in “soluble fraction (log2)” value: 0.21 for the first, -0.113 for the second.

“HMNNENELSSIISKVLEENPAEKERFLNGEKKLAGFFMGKIMKATKGTADPKKAAQLLNEIL” and “HMNNFNVVVGKAIKNSFNTRENYITINAGKVLGIKTDMGVINDKGIVGIVEKTSKDFATIQSVLNIKS” are within 0.2 log units of each other in “soluble fraction (log2)” value: 0.271 for the first, 0.22 for the second.

“HMNNGTDGLTTRLRRAILAGQYTFKERLPSERQLAEHFNTSRGTVRKVLQRLTTMNLVEQRAGSGTYVRYG” and “HMNNIGSKIKSAKILNNLDDNQLSEITGIDKLQLRSIQDGQVNPTKMELEIISKALKLPTNYFTK” are within 0.2 log units of each other in “soluble fraction (log2)” value: 0.22 for the first, 0.154 for the second.

First: HMNNIIYLIANKLDVGKRLDQFITIRTEFSRQRVINLIEDGYVKLNNKIINLKKYKIKGDEKIEITIPEIR
Second: HMNNKVAVKSGYYFEIFNKEEIPTTLAKTKQKVKINNIQYDLYQGMSLDDERKIDDMFGDRMGYSIDDY
The “soluble fraction (log2)” value of the first is higher: -1.49 for the first, -1.9 for the second.

“HMNNKVAVKSGYYFELFDKDEIPATLEKMKQKVKIDNIKYDLYQGTSLEDERKIDTMFGEKMGYSIDDYI” and “HMNNLVTRREVEILGWIKEGKTTSDIAGILSLSPFTVKNHVQNILKKLGARSRSHAVAQAINLGLLH” are within 0.2 log units of each other in “soluble fraction (log2)” value: -0.527 for the first, -0.446 for the second.

“HMNNPISMQKLRQVIRLYGQGKGTKSINSMLGVSRNTIKKYLQVYHSSGINYESFLAMSDKELSAVFLV” and “HMNNQVTFSKFLNEVEDGRVVEVNIQGNNITGVLSDGSKFKTFSPNYPNLVEKLSEKGVSINASPL” are within 0.2 log units of each other in “soluble fraction (log2)” value: 0.226 for the first, 0.153 for the second.
